The target of assay [1] is T1, prohibitin (B cell receptor associated protein) (mouse).
T1 sequence (P67778 2-272, looked up): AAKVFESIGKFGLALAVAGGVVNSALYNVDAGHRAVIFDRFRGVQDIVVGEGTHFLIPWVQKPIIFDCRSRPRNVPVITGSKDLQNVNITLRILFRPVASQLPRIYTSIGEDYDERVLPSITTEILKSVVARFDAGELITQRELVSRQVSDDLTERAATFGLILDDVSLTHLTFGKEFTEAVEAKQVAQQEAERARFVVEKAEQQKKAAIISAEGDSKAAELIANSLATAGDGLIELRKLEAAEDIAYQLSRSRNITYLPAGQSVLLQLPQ
Briefly: immunoprecipitation from mouse adipose tissue extract, SDS-PAGE.

The target of assay [2] is T2, Recombinant IL-11Rα (IL-11 receptor alpha) (UniProt Q14626 23-370, limits assumed).
T2 construct: also called immobilized IL-11Rα
T2 sequence (looked up): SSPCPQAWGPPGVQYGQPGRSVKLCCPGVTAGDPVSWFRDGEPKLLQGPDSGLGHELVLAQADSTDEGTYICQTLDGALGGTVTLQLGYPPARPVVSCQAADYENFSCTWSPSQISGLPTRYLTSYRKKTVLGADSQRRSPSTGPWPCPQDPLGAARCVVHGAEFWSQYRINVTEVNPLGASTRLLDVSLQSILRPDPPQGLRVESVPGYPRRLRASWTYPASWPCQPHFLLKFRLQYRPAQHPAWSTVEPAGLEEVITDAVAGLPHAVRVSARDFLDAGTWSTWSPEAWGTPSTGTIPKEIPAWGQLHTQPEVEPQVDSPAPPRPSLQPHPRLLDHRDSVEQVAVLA
Put plainly: in vitro ligand-receptor binding assay, phage on recombinant receptor. As for the experimental part:
(§1) Recombinant IL-11Rα, vascular endothelial growth factor receptor-1 (VEGFR1) or leptin receptor (OB-R) were incubated with phage displaying the […] (SEQ ID NO:37) peptide. VEGFR1 was used as a representative vascular receptor, while OB-R was used because it shares a co-receptor with IL-11Rα. An unrelated phage clone displaying the peptide […] (SEQ ID NO:38) and insertless fd-tet phage were used as controls. […] Binding of […] (SEQ ID NO:37)-phage to IL-11Rα was specific, since it was inhibited by the native IL-11 ligand in a concentration-dependent manner (not shown). […] These observations with normal prostate tissues were followed by an examination of the expression of IL-11Rα in tumors, as discussed in the present Example.

The target in assay [3] is T3, leptin receptor (OB-R), recombinant (UniProt P48357 22-839, limits assumed).
T3 sequence (looked up): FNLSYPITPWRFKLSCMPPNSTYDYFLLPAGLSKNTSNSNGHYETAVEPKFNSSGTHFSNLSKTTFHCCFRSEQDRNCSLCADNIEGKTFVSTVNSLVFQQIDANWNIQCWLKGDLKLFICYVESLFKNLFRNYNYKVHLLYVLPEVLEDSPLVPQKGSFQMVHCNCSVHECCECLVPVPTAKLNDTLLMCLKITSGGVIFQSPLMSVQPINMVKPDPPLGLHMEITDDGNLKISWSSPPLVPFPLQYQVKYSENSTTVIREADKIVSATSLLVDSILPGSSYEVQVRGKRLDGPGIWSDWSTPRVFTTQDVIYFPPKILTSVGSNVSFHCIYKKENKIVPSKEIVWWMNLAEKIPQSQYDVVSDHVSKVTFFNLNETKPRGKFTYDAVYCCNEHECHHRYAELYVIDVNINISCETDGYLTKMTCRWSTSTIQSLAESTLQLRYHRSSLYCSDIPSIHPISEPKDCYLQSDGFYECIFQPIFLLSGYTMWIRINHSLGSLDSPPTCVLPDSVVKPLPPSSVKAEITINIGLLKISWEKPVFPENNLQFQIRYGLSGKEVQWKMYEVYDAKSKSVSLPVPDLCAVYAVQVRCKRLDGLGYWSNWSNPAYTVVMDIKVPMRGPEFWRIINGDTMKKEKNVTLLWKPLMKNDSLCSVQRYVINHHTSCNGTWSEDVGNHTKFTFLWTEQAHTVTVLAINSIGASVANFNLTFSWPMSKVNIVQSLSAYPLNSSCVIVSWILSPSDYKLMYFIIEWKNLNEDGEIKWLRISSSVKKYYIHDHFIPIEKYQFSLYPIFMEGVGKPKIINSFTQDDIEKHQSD
The assay is described as above. As for the experimental part:
as §1

Assay [4] addresses vascular endothelial growth factor receptor-1 (VEGFR1), recombinant (UniProt P17948 27-756, limits assumed). Described as above. How it is done: as §1

Positions of bridges follow the written chain, without caps; N, C: chain ends. Non-standard residues stand in square brackets, D forms with d. No end group written: not given here.

vascular endothelial growth factor receptor-1 (VEGFR1), recombinant, sequence (P17948 27-756 limits assumed): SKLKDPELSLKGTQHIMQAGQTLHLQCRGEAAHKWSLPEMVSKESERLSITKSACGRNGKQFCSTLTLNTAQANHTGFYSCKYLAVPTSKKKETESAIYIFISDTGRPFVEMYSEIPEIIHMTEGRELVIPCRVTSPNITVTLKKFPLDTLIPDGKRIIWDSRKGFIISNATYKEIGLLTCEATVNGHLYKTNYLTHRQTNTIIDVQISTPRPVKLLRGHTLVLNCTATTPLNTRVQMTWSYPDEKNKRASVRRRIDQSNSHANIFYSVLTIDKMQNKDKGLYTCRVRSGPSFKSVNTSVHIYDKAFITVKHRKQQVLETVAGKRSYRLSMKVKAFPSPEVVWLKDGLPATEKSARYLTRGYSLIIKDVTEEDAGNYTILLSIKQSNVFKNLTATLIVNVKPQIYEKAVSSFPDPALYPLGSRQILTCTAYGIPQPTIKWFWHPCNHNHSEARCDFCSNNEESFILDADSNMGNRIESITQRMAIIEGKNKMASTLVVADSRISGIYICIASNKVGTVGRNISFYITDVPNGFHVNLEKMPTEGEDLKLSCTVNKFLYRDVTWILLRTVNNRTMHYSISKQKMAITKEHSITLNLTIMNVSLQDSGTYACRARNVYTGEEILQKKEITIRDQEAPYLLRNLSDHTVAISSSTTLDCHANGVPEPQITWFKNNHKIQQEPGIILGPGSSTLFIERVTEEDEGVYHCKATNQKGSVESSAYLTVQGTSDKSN

B1: … (SEQ ID NO:81) conjugated to (KLAKLAK)2 (SEQ ID NO:1) (peptide)
peptide: CKGGRAKDCGG[dK][dL][dA][dK][dL][dA][dK][dK][dL][dA][dK][dL][dA][dK]
modifications: disulfide 1-9 (inferred); not fully specified; also: order of the parts not given here explicitly
B1: in assay [1], the fold enrichment against the CARAC (SEQ ID NO:71) precipitated fraction was > 10 fold.

B2: unrelated phage clone displaying the peptide CRVDFSKGC (SEQ ID NO:38) (peptide)
peptide: CRVDFSKGC
notes: used as a control; also called control phage
As for B2, the binding result in assay [2] is on record as “no binding”.

B3: CGRRAGGSC (SEQ ID NO:37)-displaying phage (peptide)
peptide: CGRRAGGSC
modifications: not fully specified (bridges); cysteine pairing not given here; also: displayed on filamentous phage
notes: also called prostate-homing phage displaying an IL-11 peptide mimic
Regarding B3, the binding result in assay [3] and in assay [4] was “no binding” throughout.

The values are drawn from patent publication US20060239968A1 (University of Texas, published 2006).
